The text below walks through data of patent publication US20030119716A1, “Methods for screening, treating and diagnosing G-protein coupled receptor-related disorders and compositions thereof” (Wyeth, priority 2001, published 2003).

This assay deals with c-fos SRE activation in CHO cells stably expressing D2R. Put plainly: SRE-luciferase reporter assay, quinpirole-stimulated c-fos SRE activation in CHO-D2R cells. The conditions noted are these: for effect of RGS transfection on quinpirole dose-response curve of SRE activation: RGS (2 μg) transfected alone, no Gα co-transfection; for reduction in SRE activation: RGS co-expressed with Gαq/i chimera. Format: cell-based, Chinese hamster. Background: Reporter assays use an easily measured gene product as a stand-in for the process of interest.

B1: RGSz1: human RGSz1 expressed from pCR3.1; highly selective for Gαz (protein)
chain: MPQLSQDNQECLQKHFSRPSIWTQFLPLFRAQRYNTDIHQITENEGDLRAVPDIKSFPPAQLPDSPAAPKLFGLLSSPLSSLARFFSHLLRRPPPEAPRRRLDFSPLLPALPAARLSRGHEELPGRLSLLLGAALALPGRPSGGRPLRPPHPVAKPREEDATAGQSSPMPQMGSERMEMRKRQMPAAQDTPGAAPGQPGAGSRGSNACCFCWCCCCSCSCLTVRNQEDQRPTIASHELRADLPTWEESPAPTLEEVNAWAQSFDKLMVTPAGRNAFREFLRTEFSEENMLFWMACEELKKEANKNIIEEKARIIYEDYISILSPKEVSLDSRVREVINRNMVEPSQHIFDDAQLQIYTLMHRDSYPRFMNSAVYKDLLQSLSEKSIEA
For the molecule B1, the “effect of RGS transfection on quinpirole dose-response curve of SRE activation” value (“effect of RGS transfection” for short) is “rightward shift of the dose-response curve”.

B2: RGS4: human RGS4 expressed from pCR3.1; potent GAP for both Gαq and Gαi (protein)
chain: MCKGLAGLPASCLRSAKDMKHRLGFLLQKSDSCEHNSSHNKKDKVVICQRVSQEEVKKWAESLENLISHECGLAAFKAFLKSEYSEENIDFWISCEEYKKIKSPSKLSPKAKKIYNEFISVQATKEVNLDSCTREETSRNMLEPTITCFDEAQKKIFNLMEKDSYRRFLKSRFYLDLVNPSSCGAEKQKGAKSSADCASLVPQCA
In the case of B2, the “effect of RGS transfection” value is reported as “rightward shift of the dose-response curve” and the “reduction in SRE activation” value is listed as “about 60%”. For the same molecule, under “RGS co-expressed with Gαi1, 100 nM quinpirole”, the “reduction in quinpirole-stimulated SRE activation” value was “approximately 85%”. Moreover, the “inhibition (attenuation) of SRE activation” value (RGS co-transfected with Gαi1, all quinpirole concentrations used (10 nM-100 μM)) is on record as > 80%. Further, the “reduction in quinpirole-stimulated SRE activation” value (RGS transfected without Gαi1 co-transfection, 100 nM quinpirole) is recorded as “approximately 40%”.

B3: RGS2: human RGS2 expressed from pCR3.1; selective GAP for Gαq (protein)
chain: MQSAMFLAVQHDCRPMDKSAGSGHKSEEKREKMKRTLLKDWKTRLSYFLQNSSTPGKPKTGKKSKQQAFIKPSPEEAQLWSEAFDELLASKYGLAAFRAFLKSEFCEENIEFWLACEDFKKTKSPQKLSSKARKIYTDFIEKEAPKEINIDFQTKTLIAQNIQEATSGCFTTAQKRVYSLMENNSYPRFLESEFYQDLCKKPQITTEPHAT
As to B3, the “effect of RGS transfection” value was “rightward shift of the dose-response curve” and the “reduction in SRE activation” value is listed as “approximately 70%”.
